Experimental data taken from publication PMC8389677, “Time-Resolved Studies of Ytterbium Distribution at Interfacial Surfaces of Ferritin-like Dps Protein Demonstrate Metal Uptake and Storage Pathways” (Biomedicines, 2021).

Biological target: the molecule itself
Assay: crystal structure; apo-LiDps crystals (hanging drop, 100 mM HEPES pH 7.5, 12.5-20.0% PEG 1500, 21 °C) soaked 30 or 120 min in 10 mM YbCl3; space group P41212 with six monomers in the asymmetric unit; data at 100 K

B1: Listeria innocua Dps (DNA binding protein from starved cells) (natural protein)
chain: MKTINSVDTKEFLNHQVANLNVFTVKIHQIHWYMRGHNFFTLHEKMDDLYSEFGEQMDEVAERLLAIGGSPFSTLKEFLENASVEEAPYTKPKTMDQLMEDLVGTLELLRDEYKQGIELTDKEGDDVTNDMLIAFKASIDKHIWMFKAFLGKAPLE
notes: Dps (ferritin-like protein) of Listeria innocua; Homo-dodecameric cage; Crystals in space group P41212 have six monomers in the asymmetric unit; Crystals were soaked with 10 mM YbCl3 for 30 or 120 min; PDB 1QGH was the search model for molecular replacement; also called LiDps; Apo-Dps; copies: 12
stoichiometry N: 12
